Data set [1] concerns the molecule itself. Kind of data set: SEC-MALS; 200 uM protein injected on a WTC-0303 column, buffer A (20 mM Tris/HCl pH 7.4, 100 mM NaCl, 2 mM β-mercaptoethanol, 4 mM MgCl2), 25 °C, without PEP; 50 uM elution concentration; KD (dimer to monomers) estimated from the dimer fraction, semiquantitative.
Data set [2] deals with the molecule itself. Kind of data set: SEC-MALS; 200 uM protein injected on a WTC-0303 column, buffer A with 10 mM PEP, 25 °C; dimer to monomers. Background: Size exclusion chromatography separates by hydrodynamic size, large species first.

B1: C-terminal domain of enzyme I, EIC(231-575) (domain or fragment)
chain: not shown
notes: C-terminal dimerization domain (EIC) of enzyme I, E. coli, residues 231-575, includes part of the connecting helix 231-260; source: E. coli BL21star (DE3), purified (DEAE or HisTrap, Superdex, monoQ)
By stoichiometry N is commonly meant the number of molecules, sites or subunits per partner or assembly. For B1, the “stoichiometry N” value in data set [1] is 2.

B2: Enzyme I with the H189A and G356S mutations, EIA(G356S) (enzyme)
chain: not shown
notes: Enzyme I (EI) of the bacterial phosphotransferase system, E. coli, full length EI(1-575), with H189A and G356S; also called EI(G356S); source: E. coli BL21star (DE3), purified (DEAE or HisTrap, Superdex, monoQ)
A word on the Kd: it is the free concentration of one partner at which half of the binding sites on the other are occupied at equilibrium, for simple one-to-one binding. With B2, in data set [2], the percent dimer was more than 90% and the “stoichiometry N” value came out at 2. In addition, the dissociation constant Kd in data set [1] was approximately 30 µM.

B3: Enzyme I (EI) with the active site H189A mutation, EI(1-575, H189A) (enzyme)
chain: not shown
notes: Enzyme I (EI) of the bacterial phosphotransferase system, E. coli, full length EI(1-575), with H189A; also called EIA; EI(H189A); source: E. coli BL21star (DE3), purified (DEAE or HisTrap, Superdex, monoQ)
Consider B3, for which the percent dimer in data set [2] is more than 90%. In addition, in data set [1], the Kd was approximately 0.4 µM and the “stoichiometry N” value is 2.

B4: C-terminal domain of enzyme I with the G356S mutation, EIC(G356S) (domain or fragment)
chain: not shown
notes: C-terminal dimerization domain (EIC) of enzyme I, E. coli, residues 231-575, with G356S; also called EIC(G365S) (misprint in the text); source: E. coli BL21star (DE3), purified (DEAE or HisTrap, Superdex, monoQ)
Turning to B4, the percent dimer in data set [2] is approximately 80%. Further, in data set [1], the Kd is not below 5 µM and the “stoichiometry N” value is 2.
